The values below come from paper PMC9513230, “Inhibition of Plasmodium falciparum Hsp70-Hop partnership by 2-phenylthynesulfonamide” (Frontiers in Molecular Biosciences, 2022).

Read-outs that look alike come from different tables or passages of the source.

The target of test [1] is PfHsp70-1-PfHop association (Plasmodium falciparum, UniProt Q8IB24+Q8ILC1). Nature of the test: ELISA for the direct association of PfHsp70-1 and PfHop. Type of test: biochemical. Particulars: for Effect on association of PfHsp70-1 and PfHop: 25 µM nucleotide or inhibitor. The protocol: An enzyme-linked immunosorbent assay (ELISA) was used to validate the effect of PES on the direct association of PfHsp70-1 and PfHop following a previously described protocol ([Mabate et al., 2018]). Briefly, ligand (5 μg/ml of PfHsp70-1) suspended in 5 mM sodium bicarbonate (NaHCO3) at pH 9.5 was noncovalently immobilized onto a 96 well plate overnight at 4 C. BSA (5 μg/ml) was used as a ligand for the negative control. The wells were washed with 150 µl TBST which contains (Tris-buffered saline- Tween (TBST; 20 mM Tris HCl, pH 7.5, 500 mM NaCl supplemented with 0.1% Tween 20) prior to blocking with 5% fat-free milk in TBST and incubated at 25 C for 1 h. The wells were washed using TBST for a total of 10 min. Varying concentrations (0–1,000 nM) of analyte PfHop were added to the wells and incubated for 2 h at 25 °C. To remove the unbound analyte, the plate was washed with 150 µl TBST three times before the addition of rabbit-raised α-PfHop antibody (1: 4,000) followed by incubation at 25°C for 1 h. Subsequently, the wells were washed with 150 µl TBST three times before the addition of 100 µl secondary HRP conjugated goat-raised α-rabbit antibody (1: 4,000) and incubated for 45 min at 25 °C. The substrate, 3,3’5,5’ –tetramethylbenzidine (TMB) (Bio Scientific, United States) was added into the wells and incubated for 2 min at 25 C. Color development was monitored by recording absorbance readings at 370 nm at 5 min time intervals for 30 min using a SpectraMax M3 Microplate reader (Molecular Devices, United States). To determine the effect of the inhibitor, the assay was conducted in the presence of 25 µM) of PES. […] Furthermore, the assay was repeated interchanging the ligand and analyte to validate data reproducibility. The generated data were analyzed taking into account the background signal generated by BSA which served as the control protein. The absorbance values obtained at the highest concentration of each analyte were averaged to represent maximum (100%) binding. Titration curves were then generated using GraphPad Prism 9.3.1 (GraphPad Software, United States). The relative binding affinities of PES under each experimental setting were normalized relative to the affinity estimated for assay conducted in the absence of nucleotide at the highest concentration of PfHop. Statistical analysis was conducted to establish significant differences at p < 0.05 using a student t-test.

Test [2] has as its target T1, PfHop (Plasmodium falciparum, UniProt Q8ILC1).
T1 construct: His; made in house; host or cells: E. coli XL1 Blue
T1 sequence (Q8ILC1 1-564): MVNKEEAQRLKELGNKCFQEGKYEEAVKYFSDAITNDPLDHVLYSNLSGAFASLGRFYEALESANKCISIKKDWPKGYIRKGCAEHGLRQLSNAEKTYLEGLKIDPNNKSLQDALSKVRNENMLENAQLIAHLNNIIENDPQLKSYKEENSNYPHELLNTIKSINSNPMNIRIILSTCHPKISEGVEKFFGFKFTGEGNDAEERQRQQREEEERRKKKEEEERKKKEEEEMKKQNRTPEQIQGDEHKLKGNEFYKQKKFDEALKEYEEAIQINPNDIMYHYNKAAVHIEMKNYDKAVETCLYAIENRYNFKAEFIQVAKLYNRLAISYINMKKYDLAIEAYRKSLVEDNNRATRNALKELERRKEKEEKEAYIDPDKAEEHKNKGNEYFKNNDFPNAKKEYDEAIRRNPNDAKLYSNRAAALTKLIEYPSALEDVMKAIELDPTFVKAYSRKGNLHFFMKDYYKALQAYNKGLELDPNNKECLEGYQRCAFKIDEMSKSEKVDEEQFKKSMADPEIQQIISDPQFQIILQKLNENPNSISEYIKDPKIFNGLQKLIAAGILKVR
Kind of test: SPR equilibrium binding to immobilized PfHop. The procedure:
The steady-state equilibrium binding kinetics for the inhibitors on either PfHsp70-1 or PfHop were investigated using BioNavis Navi 420A ILVES multi-parametric surface plasmon resonance (MP-SPR) system (BioNavis, Finland) following a previously described method ([Lebepe et al., 2020]; [Chakafana et al., 2021]). Briefly, filter-sterilized de-gassed PBS (4.3 mM Na2HPO4, 1.4 mM KH2PO4, 137 mM NaCl, 3 mM KCl, 0.005% (v/v) Tween 20, and 20 mM EDTA; pH 7.4) was used as running buffer for the assay. The ligand (0.1 μg/ml of PfHsp70-1/PfHop) was immobilized onto a carboxymethyl dextran (CMD 3-D) gold sensor chip through amine coupling. PES was injected (flow rate of 50 μl/min) as analyte at varying final concentrations (0, 1.25, 2.5, 5, 10, 20 nM). […] Steady-state equilibrium was achieved after allowing the interaction to occur for 8 min at 25°C, followed by dissociation for 4 min at 25°C, respectively. The data generated were analyzed using Data Viewer (BioNavis, Finland) after subtraction of baseline (signals generated on the chip surface without protein immobilized and buffer without inhibitor). The resultant sensorgrams were analyzed to determine the equilibrium binding affinities using Trace Drawer software version 1.8 (Ridgeview Instruments; Sweden).

Test [3] relates to Asexual P. falciparum strain 3D7 parasites. Nature of the test: Parasite growth inhibition assay (SYBR Gold). Type of test: cell-based. Particulars: Plasmodium falciparum, 3D7, 96 h, read-out: IC50 parasite growth. The procedure: Parasite growth without any drug present, which allowed the parasites to proliferate unrestricted, was used as negative drug control. SYBRTM Gold DNA stain (Invitrogen, ThermoFisher Scientific Inc., Germany) was used to measure the proliferation of the parasites compared to the controls as previously described ([[…] al., 2004]). Fluorescence was measured using a TECAN Spark® multimode microplate reader (Tecan Trading AG, Switzerland) and the data were analyzed using SigmaPlot, version 12 (Systat Software Inc., IL, United States).

The test system is the same in test [4]. Particulars: read-out: IC50 published potency, ref Smilkstein et al., 2004; cited from earlier work.
In test [5] the target is T2, Plasmodium falciparum Hsp70-1 (Plasmodium falciparum, UniProt Q8IB24 1-677).
T2 construct: Plasmodium falciparum Hsp70-1 (PF3D7_0818900), cytosolic Hsp70; also called PfHsp70-1; PF3D7_0818900
Nature of the test: SPR; ligand and analyte switched: PfHop immobilised, PfHsp70-1 analyte; with PES; bivalent fit model. Particulars: both partners purified.

For test [6], the target named is T2, Plasmodium falciparum Hsp70-1. Nature of the test: SPR; PfHsp70-1 immobilised as ligand; PfHop analyte 0-2000 nM, 25 C, PBS; with 25 uM PES; bivalent fit model. Particulars: both partners purified.
Test [7] has the same target. Nature of the test: SPR; ligand and analyte switched: PfHop immobilised, PfHsp70-1 analyte; with EGCG; bivalent fit model. Particulars: both partners purified.
The target is the same in test [8]. Nature of the test: SPR; PfHsp70-1 immobilised as ligand; PfHop analyte 0-2000 nM, 25 C, PBS; with 25 uM ADP; bivalent fit model. Particulars: both partners purified.
Test [9] has the same target. Nature of the test: SPR; ligand and analyte switched: PfHop immobilised, PfHsp70-1 analyte; no nucleotide or inhibitor (NN); bivalent fit model. Particulars: both partners purified.
For test [10] the target is unchanged. Nature of the test: SPR; PfHsp70-1 immobilised as ligand; PfHop analyte 0-2000 nM, 25 C, PBS; with 25 uM EGCG; bivalent fit model. Particulars: both partners purified.
For test [11] the target is unchanged. Nature of the test: SPR; PfHsp70-1 immobilised as ligand; PfHop analyte 0-2000 nM, 25 C, PBS; with 25 uM ATP; bivalent fit model. Particulars: both partners purified.
Test [12] has the same target. Kind of test: SPR; ligand and analyte switched: PfHop immobilised, PfHsp70-1 analyte; with ATP; bivalent fit model. Particulars: both partners purified.
Test [13] has the same target. Nature of the test: SPR; ligand and analyte switched: PfHop immobilised, PfHsp70-1 analyte; with ADP; bivalent fit model. Particulars: both partners purified.
Test [14] shares this target. Nature of the test: SPR; PfHsp70-1 immobilised as ligand; PfHop analyte 0-2000 nM, 20 ul/min, 25 C, PBS; no nucleotide or inhibitor (NN); bivalent fit model. Particulars: both partners purified.

Regarding `O=C(O[C@@H]1Cc2c(O)cc(O)cc2O[C@@H]1c1cc(O)c(O)c(O)c1)c1cc(O)c(O)c(O)c1` [EGCG, (−)-Epigallocatechin-3-gallate], the concentration for half-maximal inhibition (IC50) stood at 14.6 ± 1.8 nM in [1] (ligand PfHop, analyte PfHsp70-1) and 13.9 ± 1.2 nM in test [1] (ligand PfHsp70-1, analyte PfHop).
In turn, `Nc1ncnc2c1ncn2[C@@H]1O[C@H](COP(=O)(O)OP(=O)(O)OP(=O)(O)O)[C@@H](O)[C@H]1O` [ATP] returned a Kd in test [2] of 861 ± 10 nM. In addition, in [1], the “Effect on association of PfHsp70-1 and PfHop” value is given as “abrogated the association”.
Turning to `CCN(CC)CCCC(C)Nc1ccnc2cc(Cl)ccc12` (stereo not shown) [chloroquine], the IC50 was 29.1 ± 1.3 nM in test [3] and 21 ± 1.7 nM in test [4].
As for `Nc1ncnc2c1ncn2[C@@H]1O[C@H](COP(=O)(O)OP(=O)(O)O)[C@@H](O)[C@H]1O` [ADP], the “Effect on association of PfHsp70-1 and PfHop” value in test [1] is listed as “promoted the association”.

B1: Plasmodium falciparum Hsp90-Hsp70 organizing protein (natural protein, UniProt Q8ILC1 1-564, looked up)
chain: MVNKEEAQRLKELGNKCFQEGKYEEAVKYFSDAITNDPLDHVLYSNLSGAFASLGRFYEALESANKCISIKKDWPKGYIRKGCAEHGLRQLSNAEKTYLEGLKIDPNNKSLQDALSKVRNENMLENAQLIAHLNNIIENDPQLKSYKEENSNYPHELLNTIKSINSNPMNIRIILSTCHPKISEGVEKFFGFKFTGEGNDAEERQRQQREEEERRKKKEEEERKKKEEEEMKKQNRTPEQIQGDEHKLKGNEFYKQKKFDEALKEYEEAIQINPNDIMYHYNKAAVHIEMKNYDKAVETCLYAIENRYNFKAEFIQVAKLYNRLAISYINMKKYDLAIEAYRKSLVEDNNRATRNALKELERRKEKEEKEAYIDPDKAEEHKNKGNEYFKNNDFPNAKKEYDEAIRRNPNDAKLYSNRAAALTKLIEYPSALEDVMKAIELDPTFVKAYSRKGNLHFFMKDYYKALQAYNKGLELDPNNKECLEGYQRCAFKIDEMSKSEKVDEEQFKKSMADPEIQQIISDPQFQIILQKLNENPNSISEYIKDPKIFNGLQKLIAAGILKVR
notes: Plasmodium falciparum Hsp90-Hsp70 organizing protein, PfHop (PF3D7_1434300); also called PfHop; PF3D7_1434300
Regarding B1, the Kd in test [5] turned out to be 232 nM; in test [6] it was 214 nM; in test [7], 1360 nM; in test [8] it was 3.08 nM; in test [9] it was 4.49 nM; in test [10], 20700 nM. The Kd in [11] amounted to 79.8 nM; in test [12], 80.9 nM; in test [13], 3.1 nM; in test [14] it was 4.24 nM. The koff was 0.00811 s⁻¹ in [5]; 0.0266 s⁻¹ in test [6]; 0.00914 s⁻¹ in [7]; 0.00308 s⁻¹ in test [8]; 0.0341 s⁻¹ in test [9]; 0.13 s⁻¹ in test [10]. The koff amounted to 0.0207 s⁻¹ in test [11], 0.0215 s⁻¹ in [12], 0.025 s⁻¹ in test [13] and 0.00325 s⁻¹ in test [14]. The kon in test [5] was 35000 M⁻¹ s⁻¹; in test [6], 125000 M⁻¹ s⁻¹; in test [7], 6710 M⁻¹ s⁻¹; in [8] it was 781000 M⁻¹ s⁻¹; in test [9] it was 7.6e+06 M⁻¹ s⁻¹; in test [10], 6310 M⁻¹ s⁻¹. Moreover, the on-rate constant (kon) in test [11] came out at 259000 M⁻¹ s⁻¹; in test [12], 266000 M⁻¹ s⁻¹; in test [13], 8.07e+06 M⁻¹ s⁻¹; in test [14], 767000 M⁻¹ s⁻¹.
